In patent publication US20050064507A1, “Determining kinase specificity” (priority 2003, published 2005):

How the values were obtained:
PKC-epsilon = biological target: T1, PKC-epsilon (Homo sapiens, UniProt Q02156); test: In vitro kinase assay: peptide phosphorylation by PKC-epsilon; format: biochemical; settings: for PKC-epsilon phosphorylation: normalized to best substrate; for phosphorylation by PKC epsilon: peptide concentration 1 uM
T1 construct: purchased Calbiochem
T1 sequence (Q02156 1-737): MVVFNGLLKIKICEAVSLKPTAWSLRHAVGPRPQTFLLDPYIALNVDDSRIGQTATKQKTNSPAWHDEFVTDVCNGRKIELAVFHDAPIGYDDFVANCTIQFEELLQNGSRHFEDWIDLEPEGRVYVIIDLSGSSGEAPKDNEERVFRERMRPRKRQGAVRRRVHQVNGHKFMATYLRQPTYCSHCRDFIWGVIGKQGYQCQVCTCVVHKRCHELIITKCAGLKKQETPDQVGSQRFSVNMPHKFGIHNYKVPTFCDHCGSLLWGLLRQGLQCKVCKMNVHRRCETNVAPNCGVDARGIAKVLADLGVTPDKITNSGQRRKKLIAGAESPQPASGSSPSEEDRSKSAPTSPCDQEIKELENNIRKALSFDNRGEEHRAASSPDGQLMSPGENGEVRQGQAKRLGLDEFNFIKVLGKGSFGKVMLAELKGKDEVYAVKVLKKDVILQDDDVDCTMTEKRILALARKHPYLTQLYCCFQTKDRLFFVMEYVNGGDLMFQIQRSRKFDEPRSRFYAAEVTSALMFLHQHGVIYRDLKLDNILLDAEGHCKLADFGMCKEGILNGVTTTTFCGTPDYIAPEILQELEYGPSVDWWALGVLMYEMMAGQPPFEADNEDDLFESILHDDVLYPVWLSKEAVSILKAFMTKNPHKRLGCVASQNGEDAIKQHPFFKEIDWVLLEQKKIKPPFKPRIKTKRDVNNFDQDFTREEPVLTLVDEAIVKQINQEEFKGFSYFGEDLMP
Method: Catalytically active preparations of the kinases of interest were either purchased or prepared. Purchased and tested active kinase preparations including the following: PKC-alpha, PKC-delta, PKC-epsilon, PKC-zeta, PKC-mu, PKA, PKG from Calbiochem, ROK alpha/ROCK-II, active from Upstate Biotechnology, and AKT1 from Panvera.
(§1) The conditions of the kinase assay and the amount of active kinase used varied with the kinase and with the accuracy needed. For a typical experiment, 5-20 ng of kinase was used per well and each peptide pool was assayed in duplicate wells. Note that the absolute amount of kinase used was not usually a critical parameter, because the desired information related to specificity of the kinase not its absolute activity, and robustness of the assay depends on comparisons of the same amount of kinase on different peptides. The combination of kinase concentration and assay duration was modified to assure that the stoichiometry of peptide phosphorylation never exceeded 5%. The choice of kinase buffer depended on the kinase being analyzed. For studies of PKC, 100 mM HEPES, 0.05% Triton-X100, 1 mM CaCl2, 20 mM MgCl2, 0.2 mg/ml phosphatidyl serine (Avanti Polar Lipids), PMA 100 ng/ml was typically used. The lipid stock was prepared by transferring 3 mg phosphatidyl serine into iced mixture of 450 μl water plus 50 μl of 10% Triton-X100, sonicating 10 times on ice for 1 sec each.
(§2) The kinase reaction mixture was assembled by sequential addition to a tube held on ice of: 5 μl peptide (100 μM for final concentration of 10 μM), 15 μl of kinase (typically 5 ng/well, in appropriate kinase buffer), 30 μl of ATP (1 uCi/well of ^32P-gamma ATP in a stock of 167 μM cold ATP in the kinase buffer; for final concentration for 100 μM ATP). The mixture was rapidly warmed to desired reaction temperature (30° C. for PKC) and incubated for the desired duration (usually 10 minutes). The kinase assay was terminated by transfer to 4° C. water batch, and rapid addition of an equal volume (50 μl) of stop solution [0.1M ATP+0.1M EDTA in water, pH 8].
(§3) The peptides were then captured from the reaction mixture by transfer to a Reacti-Bind Streptavidin High Binding Capacity Coated Plates (HBC) (Pierce Biotechnology) as follows. The HBC plates were pre-rinsed three times with PBS/Tween PBS/Tween20 0.05% (PBS/Tween). Part of all of the reaction mixture was then transferred wells of a HBC plate pre-filled with 90 μl of phosphate-buffered saline (PBS); typically each aliquots of each phosphorylation reaction were transferred to duplicate HBC plates to assure accuracy by additional replication
For kinase assays done at the standard peptide concentration of 10 μM, the peptide concentration in the reaction mixture becomes 5 μM after addition of the stop solution; consequently 10 μl of the reaction (50 pMoles of peptide) was transferred to the HBC plate. More generally, the amount of reaction mixture transferred was estimated to be about 50 pMoles of peptide. […] The HBC plates were incubated for 0.5 to 1.5 hr at room temperature for complete binding of biotinylated peptides to plate-bound streptavidin. The HBC plates were then washed extensively with PBS/Tween. Five washes were done routinely and additional wash steps were added if the wash solution removed from the plate had measurable radioactivity as detected using a Geiger counter. This step is essential to obtaining a good the signal to noise ratio because the fraction of radioactivity incorporated in the peptides was a tiny fraction of the total in the reaction mixture. The wells were air-dried. A volume of 40-50 μl of microScint-20 (Packard Instruments) was added to each well. The plates were covered with stick-on film sheet. Radioactive emissions were measured in a TopCount NXT Microplate Scintillation and Luminescence Counter (Packard Instruments). Typically samples were counted for 5 minutes (or more) to improve the signal to noise ratio when counts were low. […]

PKC = test: In vitro phosphorylation by PKC (average of isoforms alpha, epsilon, delta, theta); format: biochemical; settings: for PKC average: average of PKC-alpha, -epsilon, -theta, normalized to best substrate; for average (phosphorylation by PKC-theta, -delta, -epsilon, -alpha): average over PKC-theta, -epsilon and -alpha at 10 and 1 uM peptide, relative to best substrate
Method: as §1, §2, §3
For kinase assays done at the standard peptide concentration of 10 μM, the peptide concentration in the reaction mixture becomes 5 μM after addition of the stop solution; consequently 10 μl of the reaction (50 pMoles of peptide) was transferred to the HBC plate. More generally, the amount of reaction mixture transferred was estimated to be about 50 pMoles of peptide. […] The HBC plates were incubated for 0.5 to 1.5 hr at room temperature for complete binding of biotinylated peptides to plate-bound streptavidin. The HBC plates were then washed extensively with PBS/Tween. Five washes were done routinely and additional wash steps were added if the wash solution removed from the plate had measurable radioactivity as detected using a Geiger counter. This step is essential to obtaining a good the signal to noise ratio because the fraction of radioactivity incorporated in the peptides was a tiny fraction of the total in the reaction mixture. The wells were air-dried. A volume of 40-50 μl of microScint-20 (Packard Instruments) was added to each well. The plates were covered with stick-on film sheet. Radioactive emissions were measured in a TopCount NXT Microplate Scintillation and Luminescence Counter (Packard Instruments). Typically samples were counted for 5 minutes (or more) to improve the signal to noise ratio when counts were low.
Many peptides that are good substrates for PKC enzymes were identified using the methods of the invention. For example, Tables 4 and 5 provide a listing of peptides identified as potentially useful kinase substrates. […]

| Substance | PKC-epsilon phosphorylation (PKC-epsilon) [%] | PKC average (PKC) [%] | phosphorylation by PKC epsilon (PKC-epsilon) | average (phosphorylation by PKC-theta, -delta, -epsilon, -alpha) (PKC) |
| --- | --- | --- | --- | --- |
| 103 (LLKKRDSFRTPRDSKLE) [compound 103] | 21 | 22 |  |  |
| 161 (KYKAFIRIPIPTRRHTFRRQ) [compound 161] |  |  | 21 | 18 |
| 164 (TEGKMARVAWKGKRRSKARK) [compound 164] |  |  | 12 | 16 |
| 120 (AKRRRLSSLRASTSK) [compound 120] |  |  | 56 | 52 |
| 80 (KKKKKRFSFKKSFKL) [compound 80] | 71 | 56 |  |  |
| 141 (VTDSQKRREILSRRPSYRKI) [compound 141] |  |  | 31 | 29 |
| 108 (KATTKKRTLRKNDRK) [compound 108] | 8 | 16 |  |  |
| 101 (GAPPRRSSIRNAH) [compound 101] | 19 | 23 |  |  |
| 121 (LRRRSLRRSNSISKSPGP) [compound 121] |  |  | 49 | 50 |
| 142 (ERHVAQKKSRLRRRASQLKI) [compound 142] |  |  | 28 | 28 |
| 145 (ISDFGLAKKLAVGRHSFSRR) [compound 145] |  |  | 26 | 27 |
| 107 (QKRHARVTVKYDRRE) [compound 107] | 7 | 19 |  |  |
| 125 (PLKEKKRERKTSSKSSVRKR) [compound 125] |  |  | 48 | 48 |
| 123 (KKRFSFKKSFKLSGFSFKKN) [compound 123] |  |  | 67 | 49 |
| 136 (RARRDSLKKIEIW) [compound 136] |  |  | 33 | 32 |
| 158 (VQMTWSYPDEKNKRASVRRR) [compound 158] |  |  | 11 | 19 |
| 100 (WKGKRRSKARKKRK) [compound 100] | 13 | 26 |  |  |
| 96 (RGFLRSASLGRRASFHLE) [compound 96] | 41 | 33 |  |  |
| 157 (PSPSNETPKKKKKRFSFKKS) [compound 157] |  |  | 12 | 20 |
| 131 (WKGKRRSKARKKRK) [compound 131] |  |  | 43 | 38 |
| 155 (RWDKRRWRKIPKRPGSVHRT) [compound 155] |  |  | 26 | 21 |

| Substance | PKC-epsilon phosphorylation (PKC-epsilon) [%] | PKC average (PKC) [%] | phosphorylation by PKC epsilon (PKC-epsilon) | average (phosphorylation by PKC-theta, -delta, -epsilon, -alpha) (PKC) |
| --- | --- | --- | --- | --- |
| 84 (QKKSRLRRRASQLKI) [compound 84] | 52 | 53 |  |  |
| 113 (GENVLKKSMKSRVKG) [compound 113] | 10 | 10 |  |  |
| 111 (KKKRFSFKKSFKLSGFSFKK) [compound 111] | 12 | 14 |  |  |
| 126 (KAIKAIEGGQKFARKSTRRS) [compound 126] |  |  | 69 | 46 |
| 105 (ALRRPSLRREADD) [compound 105] | 29 | 21 |  |  |
| 163 (PPRTPGWHQLQPRRVSFRGE) [compound 163] |  |  | 14 | 16 |
| 156 (SAQITIPKDGQKRKKSLRKK) [compound 156] |  |  | 18 | 20 |
| 114 (KKKKRASFKRKSSKKG) [compound 114] |  |  | 100 | 95 |
| 77 (KKKKRASFKRKSSKKG) [compound 77] | 71 | 80 |  |  |
| 160 (PFEVVWYKDKRQLRSSKKYK) [compound 160] |  |  | 13 | 18 |
| 90 (AQIVKRASLKRGKQ) [compound 90] | 49 | 40 |  |  |
| 83 (RKIPKRPGSVHRTPSRQ) [compound 83] | 47 | 55 |  |  |
| 119 (KKRFSFKKSFKLSGFSFKKN) [compound 119] |  |  | 81 | 61 |
| 89 (EYLERRASRRRAV) [compound 89] | 45 | 41 |  |  |
| 140 (TELEGGFSRQRKRKLSFRRR) [compound 140] |  |  | 27 | 30 |
| 132 (GFLNEPLSSKSQRRKSLKLK) [compound 132] |  |  | 47 | 38 |
| 104 (EKIKRSSLKKVDSLKK) [compound 104] | 17 | 22 |  |  |
| 116 (EEGTFRSSIRRLSTRRR) [compound 116] |  |  | 92 | 71 |
| 92 (DGQKRKKSLRKKLD) [compound 92] | 51 | 38 |  |  |
| 82 (PRLIRRGSKKRPAR) [compound 82] | 72 | 56 |  |  |
